IntAct's records for PubMed 16511572

B1: 14-3-3 protein gamma (Homo sapiens), P61981 (parent)
chain: MVDREQLVQKARLAEQAERYDDMAAAMKNVTELNEPLSNEERNLLSVAYKNVVGARRSSWRVISSIEQKTSADGNEKKIEMVRAYREKIEKELEAVCQDVLSLLDNYLIKNCSETQYESKVFYLKMKGDYYRYLAEVATGEKRATVVESSEKAYSEAHEISKEHMQPTHPIRLGLALNYSVFYYEIQNAPEQACHLAKTAFDDAIAELDTLNEDSYKDSTLIMQLLRDNLTLWTSDQQDDDGGEGNN
partner: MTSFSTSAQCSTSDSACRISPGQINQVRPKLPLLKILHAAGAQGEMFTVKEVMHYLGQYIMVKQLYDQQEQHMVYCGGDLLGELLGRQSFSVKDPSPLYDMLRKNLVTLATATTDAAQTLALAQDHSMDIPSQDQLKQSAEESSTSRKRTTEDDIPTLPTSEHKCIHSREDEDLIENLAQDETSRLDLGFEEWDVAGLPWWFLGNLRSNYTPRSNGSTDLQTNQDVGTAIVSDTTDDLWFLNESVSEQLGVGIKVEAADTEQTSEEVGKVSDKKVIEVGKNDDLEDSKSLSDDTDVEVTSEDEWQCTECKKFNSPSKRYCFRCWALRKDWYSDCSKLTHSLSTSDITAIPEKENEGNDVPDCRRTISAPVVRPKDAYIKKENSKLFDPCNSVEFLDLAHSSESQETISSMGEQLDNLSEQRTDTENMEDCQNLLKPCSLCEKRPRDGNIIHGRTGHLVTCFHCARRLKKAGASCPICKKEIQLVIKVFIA
B2: Protein Mdm4 (Homo sapiens), O15151 (parent)
chain: B1 partner
partner: B1 chain

Variants of: B1
Details: with mdm4_human MDM4, O15151
For MVDREQLVQKARLAEQAERYDDMAAAMKNVTELNEPLSNEERNLLSVAYENVVGARRSSWRVISSIEQKTSADGNEKKIEMVRAYREKIEKELEAVCQDVLSLLDNYLIKNCSETQYESKVFYLKMKGDYYRYLAEVATGEKRATVVESSEKAYSEAHEISKEHMQPTHPIRLGLALNYSVFYYEIQNAPEQACHLAKTAFDDAIAELDTLNEDSYKDSTLIMQLLRDNLTLWTSDQQDDDGGEGNN [K50E], the “effect of a mutation on the interaction” value was “disrupting interaction”.

Variants of: B2
Details: with 1433g_human YWHAG
With P369G the “effect of a mutation on the interaction” value was “disrupting interaction”. MTSFSTSAQCSTSDSACRISPGQINQVRPKLPLLKILHAAGAQGEMFTVKEVMHYLGQYIMVKQLYDQQEQHMVYCGGDLLGELLGRQSFSVKDPSPLYDMLRKNLVTLATATTDAAQTLALAQDHSMDIPSQDQLKQSAEESSTSRKRTTEDDIPTLPTSEHKCIHSREDEDLIENLAQDETSRLDLGFEEWDVAGLPWWFLGNLRSNYTPRSNGSTDLQTNQDVGTAIVSDTTDDLWFLNESVSEQLGVGIKVEAADTEQTSEEVGKVSDKKVIEVGKNDDLEDSKSLSDDTDVEVTSEDEWQCTECKKFNSPSKRYCFRCWALRKDWYSDCSKLTHSLSTSDITAIPEKENEGNDVPDCRRTIGAPVVRPKDAYIKKENSKLFDPCNSVEFLDLAHSSESQETISSMGEQLDNLSEQRTDTENMEDCQNLLKPCSLCEKRPRDGNIIHGRTGHLVTCFHCARRLKKAGASCPICKKEIQLVIKVFIA [S367G] was tested, and the “effect of a mutation on the interaction” value was “disrupting interaction”.
